Measurements published in article PMC7982615, “Phase 1 study of telisotuzumab vedotin in Japanese patients with advanced solid tumors” (Cancer Medicine, 2021).

Test: Safety and tolerability (TEAEs, DLTs, AESIs) in phase 1 dose-escalation study of teliso‐v
Format: in vivo, human
Procedure: This phase 1, open‐label, dose‐escalation clinical trial was conducted at two sites in Japan (NCT03311477). Enrollment began on November 6, 2017, and the trial was completed on March 4, 2019.
Escalation into the higher dose level proceeded if the first three evaluable patients in the lower dose level completed the first‐cycle (for at least 21 days) safety assessment without experiencing a dose‐limiting toxicity (DLT). DLT evaluations for dose escalation and determination of RP2D were carried out by investigators, study sponsor, and an independent safety monitor. […] No premedication was required. On the basis of confirmed availability of archival tumor tissue at enrollment, patients were retrospectively analyzed for c‐Met expression and MET amplification. c‐Met expression was determined by immunohistochemistry (IHC), and MET amplification was determined by fluorescence in situ hybridization or sequencing of plasma or tumor DNA.
Safety assessments included treatment‐emergent adverse events (TEAEs) graded according to the National Cancer Institute Common Terminology Criteria for Adverse Events version 4.03. TEAEs, vital signs, physical examinations, electrocardiograms, laboratory tests, and ECOG performance status were monitored during the study. Any grade ≥3 study drug‐related nonhematologic toxicity was documented as a DLT, except as follows: grade 3 nausea or vomiting lasting ≤48 hours that was successfully managed with antiemetics; grade 3 diarrhea successfully managed with antidiarrheal; grade 3 constipation lasting ≤7 days; grade 3 acute infusion reaction that resolved to grade ≤1 within 24 hours after the end of dosing; grade 3 and 4 laboratory tests including but not limited to lactate dehydrogenase, alkaline phosphatase, and gamma‐glutamyl transferase that were considered nonclinically significant by the investigator; liver function test abnormalities; grade 3 and 4 electrolyte imbalance unless associated with clinical symptomatology despite supplementation; and grade 3 hyperglycemia that was manageable without hospitalization. The following hematologic toxicities were documented as a DLT: any grade 4 hematologic toxicity (excluding febrile neutropenia or leukopenia lasting for ≤7 days, or lymphopenia); anemia requiring red blood cell transfusion; thrombocytopenia requiring platelet transfusion; grade 3 thrombocytopenia in the presence of grade ≥2 bleeding; and grade ≥3 febrile neutropenia. Toxicity management criteria are described in the Supplementary appendix.
All data were summarized and tabulated by dose cohort. Categoric data were summarized in terms of frequency counts and percentages. Continuous data were summarized using descriptive statistics, including number of observations, mean, standard deviation, median, minimum, and maximum. No formal statistical analysis was performed for efficacy variables, which were all exploratory in nature. ORR was defined as the proportion of patients with a confirmed partial response (PR) or complete response (CR). Duration of response was defined as time from a patient's initial objective response to the first date of disease progression (PD) or death. The overall disease control rate was defined as the proportion of patients with CR, PR, or stable disease (SD). […] PFS was estimated using the Kaplan–Meier method. Efficacy analyses are presented with two‐sided exact 95% binomial CI.

## Teliso‐v: antibody‐drug conjugate: anti–c‐Met humanized monoclonal antibody ABT‐700 coupled to monomethyl auristatin E through a valine‐citrulline linker, drug:antibody ratio approximately three
2.4 mg/kg Q3W, n = 3
  Alanine aminotransferase increased, TEAE regardless of relationship: 0 n (%)
  Alanine aminotransferase increased, TEAE related to teliso‐v: 0 n (%)
  Alopecia, TEAE regardless of relationship: 0 n (%)
  Alopecia, TEAE related to teliso‐v: 0 n (%)
  Anemia, TEAE regardless of relationship: 1 (33) n (%)
  Aspartate aminotransferase increased, TEAE regardless of relationship: 0 n (%)
  Aspartate aminotransferase increased, TEAE related to teliso‐v: 0 n (%)
  Back pain, TEAE regardless of relationship: 1 (33) n (%)
  Constipation, TEAE regardless of relationship: 0 n (%)
  Decreased appetite, TEAE regardless of relationship: 2 (67) n (%)
  Decreased appetite, TEAE related to teliso‐v: 2 (67) n (%)
  Diarrhea, TEAE regardless of relationship: 1 (33) n (%)
  Fatigue, TEAE regardless of relationship: 1 (33) n (%)
  Fatigue, TEAE related to teliso‐v: 1 (33) n (%)
  Hypoalbuminemia, TEAE regardless of relationship: 0 n (%)
  Malaise, TEAE regardless of relationship: 2 (67) n (%)
  Malaise, TEAE related to teliso‐v: 2 (67) n (%)
  Nausea, TEAE regardless of relationship: 1 (33) n (%)
  Nausea, TEAE related to teliso‐v: 1 (33) n (%)
  Neutrophil count decreased, TEAE regardless of relationship: 0 n (%)
  Neutrophil count decreased, TEAE related to teliso‐v: 0 n (%)
  Peripheral neuropathy, TEAE regardless of relationship: 2 (67) n (%)
  Peripheral neuropathy, TEAE related to teliso‐v: 2 (67) n (%)
  Peripheral sensory neuropathy, TEAE regardless of relationship: 1 (33) n (%)
  Peripheral sensory neuropathy, TEAE related to teliso‐v: 1 (33) n (%)
  Punctate keratitis, TEAE regardless of relationship: 1 (33) n (%)
  Punctate keratitis, TEAE related to teliso‐v: 1 (33) n (%)
  Weight decreased, TEAE regardless of relationship: 1 (33) n (%)
  Weight decreased, TEAE related to teliso‐v: 1 (33) n (%)
  White blood cell count decreased, TEAE regardless of relationship: 0 n (%)
  White blood cell count decreased, TEAE related to teliso‐v: 0 n (%)
2.7 mg/kg Q3 W, Japanese patients
  Tolerability: well‐tolerated
2.7 mg/kg Q3W, n = 6
  Alanine aminotransferase increased, TEAE regardless of relationship: 2 (33) n (%)
  Alanine aminotransferase increased, TEAE related to teliso‐v: 2 (33) n (%)
  Alopecia, TEAE regardless of relationship: 2 (33) n (%)
  Alopecia, TEAE related to teliso‐v: 2 (33) n (%)
  Anemia, TEAE regardless of relationship: 1 (17) n (%)
  Aspartate aminotransferase increased, TEAE regardless of relationship: 2 (33) n (%)
  Aspartate aminotransferase increased, TEAE related to teliso‐v: 2 (33) n (%)
  Back pain, TEAE regardless of relationship: 1 (17) n (%)
  Constipation, TEAE regardless of relationship: 2 (33) n (%)
  Decreased appetite, TEAE regardless of relationship: 1 (17) n (%)
  Decreased appetite, TEAE related to teliso‐v: 1 (17) n (%)
  Diarrhea, TEAE regardless of relationship: 1 (17) n (%)
  Fatigue, TEAE regardless of relationship: 1 (17) n (%)
  Fatigue, TEAE related to teliso‐v: 1 (17) n (%)
  Hypoalbuminemia, TEAE regardless of relationship: 2 (33) n (%)
  Malaise, TEAE regardless of relationship: 0 n (%)
  Malaise, TEAE related to teliso‐v: 0 n (%)
  Nausea, TEAE regardless of relationship: 2 (33) n (%)
  Nausea, TEAE related to teliso‐v: 2 (33) n (%)
  Neutrophil count decreased, TEAE regardless of relationship: 2 (33) n (%)
  Neutrophil count decreased, TEAE related to teliso‐v: 2 (33) n (%)
  Peripheral neuropathy, TEAE regardless of relationship: 0 n (%)
  Peripheral neuropathy, TEAE related to teliso‐v: 0 n (%)
  Peripheral sensory neuropathy, TEAE regardless of relationship: 3 (50) n (%)
  Peripheral sensory neuropathy, TEAE related to teliso‐v: 3 (50) n (%)
  Punctate keratitis, TEAE regardless of relationship: 1 (17) n (%)
  Punctate keratitis, TEAE related to teliso‐v: 1 (17) n (%)
  Weight decreased, TEAE regardless of relationship: 2 (33) n (%)
  Weight decreased, TEAE related to teliso‐v: 1 (17) n (%)
  White blood cell count decreased, TEAE regardless of relationship: 3 (50) n (%)
  White blood cell count decreased, TEAE related to teliso‐v: 3 (50) n (%)
